Reference: patent US20260328755 (published 2026)

B1: heavy chain 512 antibody (S228P, L235E) (antibody)
chain 1: not shown
chain 2: EIVLTQSPGTLSLSPGERATLSCRASSSVSYMYWYQQKPGQAPRPLIYATSNLASGIPDRFSGSGSGTDFTLTISRLEPEDFAVYYCQQWEGNPRTFGGGTKLEIKRTVAAPSVFIFPPSDEQLKSGTASVVCLLNNFYPREAKVQWKVDNALQSGNSQESVTEQDSKDSTYSLSSTLTLSKADYEKHKVYACEVTHQGLSSPVTKSFNRGEC
B2: heavy chain 513 antibody (S228P, F234A, L235A) (antibody)
chain 1: not shown
chain 2: EIVLTQSPGTLSLSPGERATLSCRASSSVSYMYWYQQKPGQAPRPLIYATSNLASGIPDRFSGSGSGTDFTLTISRLEPEDFAVYYCQQWEGNPRTFGGGTKLEIKRTVAAPSVFIFPPSDEQLKSGTASVVCLLNNFYPREAKVQWKVDNALQSGNSQESVTEQDSKDSTYSLSSTLTLSKADYEKHKVYACEVTHQGLSSPVTKSFNRGEC

Biological target: T1, TL1A (TNFSF15) (human, UniProt O95150)
T1 chain: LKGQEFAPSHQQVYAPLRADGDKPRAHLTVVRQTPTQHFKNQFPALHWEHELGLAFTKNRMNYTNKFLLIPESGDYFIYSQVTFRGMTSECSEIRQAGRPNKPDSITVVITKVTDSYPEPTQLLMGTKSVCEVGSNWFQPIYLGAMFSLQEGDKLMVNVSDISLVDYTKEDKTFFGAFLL
Assay: ELISA

Row | Binder | EC50 [nM]
1 | B1 | 0.324
2 | B2 | 0.252
